# Results: the DeepSol protein solubility set
# Assay: soluble on expression in E. coli; label from the status in PepcDB or PDB records
row,Sequence,soluble on expression in E. coli
1,MKIEKFKVLLYLKKSRPDKSGKAPIMGRITVNRSMVQFSCKLSCTPDLWNPRESRLNGKSNEAVEVNAKLDKLLLSIHAAFDTLVERKADFDAEAVKNLFQGSLETQMTLLAMTDIVCEELRKRIGIDRAKGTYPAYFYTRRTLAEFIQKKFHSKDIAFGQLTEQFIHDYQFFVVDDKGLTIETSRHYLAIIKKVCRKAYKEGYADKCFFAHFSLPKQEEKTPKALSRESFEKIRDLVIPEHRSSHILARDLFLFACYTGTSYADAVSVTRDNLFTDDEGSLWLKYRRKKNELQACVKLLPEALELIEKYNDDTRPTLFPMLYHPNLRRLMKCLAVLADIKEDLTYHAGRHSFASLITLEAGVPIETICKMLGHSNLQTTQRYAKVTPKKLFEDMDKYIEATKDLKLIL,not soluble
2,MKIFTVCQSGLGTSFMVQMNIQQILEEVGVDTDNFQIDHTDVGSASGDMADYFFVEKTLQDALGSIPAEKIIPLNAIIDYDETKEKVLKVLDDNGIAHQ,not soluble
3,MKIGIIGATGRAGSRILEEAKNRGHEVTAIVRNAGKITQTHKDINILQKDIFDLTLSDLSDQNVVVDAYGISPDEAEKHVTSLDHLISVLNGTVSPRLLVVGGAASLQIDEDGNTLLESKGLREAPYYPTARAQAKQLEHLKSHQAEFSWTYISPSAMFEPGERTGDYQIGKDHLLFGSDGNSFISMEDYAIAVLDEIERPNHLNEHFTVAGKLEHHHHHH,soluble
4,MKIGILTQPLSNNYGGILQALALQTVLRSMGHETVILSREYDYPPFRLCLMRILSVLKCIVRKYILRDNRAIIANPFLHFYATDKTQVYDDNEIQAFIRKNLKCSVRLQSTWILKIYVRLHHFDAFLVGSDQVWRESFSPCITNFFLDFLSQKCRAKRIAYGASFGVEQNPISVASLNQCVELAKRFDAISVREQSGVKIMKETFHLSACQVLDPTLLLPVDFYRSFMQKSDMDSSGLVSYLLDGNEEKRNIIAVAREQLQLSQTELLLFPSRYKDEVPRFSSVSSWLSAFANADFVVTDSFHGCVFSIIFRKPFVVISNSGRGNERFFSLLDTFGLNDRLVFSYEEFVDKEEILLIEQDYTEVERKYENLKVKSLEFLFQALNEN,not soluble
5,MKIGYLGPKATFTEAAAALLFPSQPREPYDTIPDCIDAAAAGEIEAAVVPLENALEGSVNLTLDYLIHEQPLPIIGEIVVPIEQHLMVHPYFTPHWREVKEVYSHSHAIAQCRKFLHTVLKGAKQVPMTSTSAAAKFVSEHPHLPAAAIANRLAAEKYGLVIVQENVHDYDYNHTRFIVVSRRKEPLSPASPLYAGDKTTVVVMLPQDRPGALHQVLSAFAWRRLNLTKIESRPAKTGLGNYFFIIDIDAPMDDVLIPGAIAEIEALGCTVQLLGSYPYYFA,not soluble
6,MKIIDFRLRPPAMGFLNARIYTRPDIRNRFTRQLGFEPAPSAEEKSLELMFEEMAAAGIEQGVCVGRNSSVLGSVSNADVAAVAKAYPDKFHPVGSIEAATRKEAMAQMQEILDLGIRIVNLEPGVWATPMHVDDRRLYPLYAFCEDNGIPVIMMTGGNAGPDITYTNPEHIDRVLGDFPDLTVVSSHGNWPWVQEIIHVAFRRPNLYLSPDMYLYNLPGHADFIQAANSFLADRMLFGTAYPMCPLKEYTEWFLTLPIKPDAMEKILHGNAERLLAQAGRLEHHHHHH,not soluble
7,MKIISAEQVHQNLNFEELIPLLKQSFSRPFSMPQRQVYSLAPEQSENHDAFALLPSWNEEVIGNKAFTYFPDNAKKHDLPGLFSKIMLFKRQTGEPLALVDGTSVTYWRTAAISALASQLLSRKNSQHLMLFGTGNLASYLVKAHLTVRDIKQVTLWGRNAKKVSKLIADFSILYPAVTFKTSVDVNAEVASADIICCATGAKTPLFDGNSVSAGCHIDCLGNHMTDARECDTTTILRARVFVDSLTNTLNEAGELLIPMAEDAFNKDEIVGELADMCKTPSMLRQSSDEITLFKSVGTAISDLVAAHSVVEKLAD,not soluble
8,MKILITGGAGFIGSAVVRHIIKNTQDTVVNIDKLTYAGNLESLSDISESNRYNFEHADICDSAEITRIFEQYQPDAVMHLAAESHVDRSITGPAAFIETNIVGTYALLEVARKYWSALGEDKKNNFRFHHISTDEVYGDLPHPDEVENSVTLPLFTETTAYAPSSPYSASKASSDHLVRAWRRTYGLPTIVTNCSNNYGPYHFPEKLIPLVILNALEGKPLPIYGKGDQIRDWLYVEDHARALHMVVTEGKAGETYNIGGHNEKKNLDVVFTICDLLDEIVPKATSYREQITYVADRPGHDRRYAIDAGKISRELGWKPLETFESGIRKTVEWYLANTQWVNNVKSGAYQSWIEQNYEGRQ,soluble
9,MKILLIGGSGNIGRAIAAELSGRHEIIAAGRHHGDVRVDIEDEQSIAAMYRQLPRLDAVAVATGGRNGHVGPLAEMNAERYRVGLDAKLMGQVNLVLRGLDKVADGGSFTLVGGAWQPQAIVPLLSNVYMANAALEGFVNAAAVELPRRLRINLVSPLLLAESEAEYGPLFRGVPLVEARQVARAYSLSIEGLEHHHHHH,not soluble
10,MKIMINPKYEYLREYVERIPKDFETIGTVIHSGRNLIKMITVDGLDINVKRYTIPPLINRIAYAFFRPSKGKRAFVYPEKLLEKGFETPCPIAYIEETKMGLIGHSYFMSIQSPYRYNFCQFGNADIKSCEDVVTAFAEFTARLHEAGILHLDYSPGNILYDKIGEEYHFSLVDINRMHFGEVDIKKGCANFARLWGQTPFFILLGKEYAHSRGMDEEECVRLVLHYRKKFWNRYRRRHQVWFQLDI,not soluble
11,MKITLIIPTYNAGSIWPNVLDAIKQQTIYPDKLIVIDSGSKDETVLLASDLKNISIFNIDSKDFNHGGTRNLAVTKTLDADVIIFLTQDAILADSDAIKNLVYYFSDPLIAAVCGRQLPHKDANPLAVHARNFNYSSKSIVKSKADIEKFGIKTVFMSNSFAAYRRSVFEELSGFPEHTILAEDMFMAAKMIQAGYKVAYCAEAVVRHSHNYTPREEFQRYFDTGVFHACSPWIQRDLGGAGGEGFRFVKSEIQFLLKNAPFWIPRALLTTFAKFLGYKLGKHWQSLPLSTCRYFSMYKSYWNNIQYSSSKEIKLEHHHHHH,not soluble
12,MKIVKAEVFVTCPGRNFVTLKITTEDGITGLGDATLNGRELSVASYLQDHLCPRLIGRDAHRIEDIWQFFYKGAYWRRGPVTMSAISAVDMALWDIKAKAANMPLYQLLGGASREGVMVYCHTTGHSIDEALDDYARHQELGFKAIRVQCGIPGMKTTYGMSKGKGLAYEPATKGQWPEEQLWSTEKYLDFMPKLFDAVRNKFGFNEHLLHDMHHRLTPIEAARFGKSIEDYRMFWMEDPTPAENQECFRLIRQHTVTPIAVGEVFNSIWDCKQLIEEQLIDYIRTTLTHAGGITGMRRIADFASLYQVRTGSHGPSDLSPVCMAAALHFDLWVPNFGVQEYMGYSEQMLEVFPHNWTFDNGYMHPGDKPGLGIEFDEKLAAKYPYEPAYLPVARLEDGTLWNR,not soluble
13,MKIVRASRDQSAPVYGPRAGSQCMSNCFTFLHTCYLMGIDPVLDTTSLDAVLDSGARLDAIADEKVKRQALTDHPYRLGTEIPTVIETPAGITGHALSRPFNGTAETQDLGGYKCLGILDFLTYARGKPLPVYIIVTVGVHTRGVIVARGATYVFDPHTTDLSAEAAVYVCDDFTEAISALSFFTEMIGDFYYDAVLVYFTRCRTTLISPSELLVQIMDQYKDPDIDASVMS,soluble
14,MKKEEGLTENTGLPRKLLEKHDPWPAYVTYTSQTVKRLIEKSKTRELECMRALEERPWASRQNKPSSVIQPKRRKSSKSSGKAVFRDTLSESTLSMWGAYSVLAMAPTMIPEPTHLHADSRDCPTENYNKIIFARKPMMRMLPTVRY,not soluble
15,MKKGVLFDLDGTILDFEKSEDQALKRTFLKYGIPLTEDQVFLYREINRKWWKLLAEGKVSKDVVVVARFEEFLKTLNIPLDPRKVAKDYLEFLSEEAHFLPGAEEFLERLKKKDLRMAVVTNGVRFVQEKRSRKLKLDRFFEFVLTSEEAGVEKPDPRIFWLALERMKLKKEEVLYVGDDFSSDLEGARNAGIDFVLFSSDGDSSGDFPVARNFKELEKIVEEFL,soluble
16,MKKIAIFGSRHKSEQGASIKALILKLEEAGTPLYIERKFLSFLKQDLDFHPAICGVIDTLPEHIDYVICMGGDGTFLRTAHQIGVSQIPVLGVNTGRLGFLTDVDCHEASELITRLLDGDFTIETRSLLEVTEDNGSSPSYALNEAAILKRETGSMIRVNACLNDDYLAAYDADGLVVATPSGSTAYSLSGNGPIIMPACRNFVLTPIAPHSLNMRPLVVPDDTVIRLEVDSRSRNYLLVLDGRTRTLPCDTSILLKRAPHTLRMIRLRPHSFAETLRRKLMWGAAVRLEHHHHHH,soluble
17,MKKIATATIATAGFATIAIASGNQAHASEQDNYGYNPNDPTSYSYTYTIDAQGNYHYTWKGNWHPSQLNQDNGYYSYYYYNGYNNYNYNNYNNGYSYNNYSRYNNYSNNNQSYNYNNYNSYNTNSYRTGGLGASYSTSSNNVQVTTTMAPSSNGRSISSGYTSGRNLYTSGQCTYYVFDRVGGKIGSTWGNASNWANAAARAGYTVNNTPKAGAIMQTTQGAYGHVAYVESVNSNGSVRVSEMNYGYGPGVVTSRTISASQAAGYNFIHLEHHHHHH,not soluble
18,MKKIKKAIIPAAGLGTRFLPATKAMPKEMLPILDKPTIQYIVEEAARAGIEDIIIVTGRHKRAIEDHFDSQKELEMVLKEKGKSELLEKVQYSTELANIFYVRQKEQKGLGHAISSARQFIGNEPFAVLLGDDIVESEVPAVKQLIDVYEETGHSVIGVQEVPEADTHRYGIIDPLTKNGRQYEVKKFVEKPAQGTAPSNLAIMGRYVLTPEIFDYLKTQKEGAGNEIQLTDAIERMNNDNQVYAYDFEGERYDVGEKLGFVKTTIEYALKDDSMREELTRFIKALGL,not soluble
19,MKKILALLVIAPLLVSCSGNKNQVENEVFVKDTNGFEILMGQFAHNIENIWGLKEVLIAGPKDYVKYTDQYQTRSHINFDAGTITIETIATTNPAAHLRQAIITTLLMGDDPGSIDLYSDVNDIQISKEPFLYGQVLDNNGEPIRWEWRAAHFADYLLQNKMQTRTSGLHVISFVTIQLVPNHLDKRAHKYLPLVRKSAARYGVEESLILAIMQTESSFNPYAVSRSDALGLMQVVQHTAGKDVFKLKGKSGQPSRSYLFDPENNIDAGTAYLSILQNTYLGGIQNATSRRYAVITSYNGGAGSVLRVFHSDKNKAVGIINTMSPGDVFQTLTTKHPSGESRRYLVKVNSAQKNYRRY,not soluble
20,MKKILVGIPNYNNAAYIVDTIESVLKQSYSGVDVVVFDNASTDDSVEIIENTFLNNPNVLLKKSASNVGPTMNHNRCLEYAIDNEYDYLKVLSSDDVLLPNIIQEQFELLESEPRGAFATCNMIVTDDKLTKIKDHDFLGSNTDGNAVIKKCASHSANYIGGPSNGLLRVSCIGATRFSPEYKWLSDLKFYCDLLANRPFINTGTNGFFYRRHDNTDSSHVSKIKNLQRKESIRFSGEYGGNFLTKIKIYLRDIKSRLLLEHHHHHH,not soluble
21,MKKILVLGGAHIDRRGMIETETAPGASNPGSWMEEAGGGGFNAARNLSRLGFEVRIIAPRGGDVTGEVVAEAARQAGVEDTPFTFLDRRTPSYTAILERDGNLVIALADMDLYKLFTPRRLKVRAVREAIIASDFLLCDANLPEDTLTALGLIARACEKPLAAIAISPAKAVKLKAALGDIDILFMNEAEARALTGETAENVRDWPNILRKAGLSGGVVTRGASEVVAFNGTEKAILHPPLIREVKDVTGAGDAMASGYLAAIAEGKTIREALRQGAAAAAITVQSSFATSQDLSKDSVEAMLGLVPQAEMLA,soluble
